Earlier results as cited in PMC7687380.
pKd: −log10 of the molar value.

Biological target: LRP1 (Homo sapiens) (UniProt Q07954)
Sequence of UniProt Q07954 (Q07954 20-4544): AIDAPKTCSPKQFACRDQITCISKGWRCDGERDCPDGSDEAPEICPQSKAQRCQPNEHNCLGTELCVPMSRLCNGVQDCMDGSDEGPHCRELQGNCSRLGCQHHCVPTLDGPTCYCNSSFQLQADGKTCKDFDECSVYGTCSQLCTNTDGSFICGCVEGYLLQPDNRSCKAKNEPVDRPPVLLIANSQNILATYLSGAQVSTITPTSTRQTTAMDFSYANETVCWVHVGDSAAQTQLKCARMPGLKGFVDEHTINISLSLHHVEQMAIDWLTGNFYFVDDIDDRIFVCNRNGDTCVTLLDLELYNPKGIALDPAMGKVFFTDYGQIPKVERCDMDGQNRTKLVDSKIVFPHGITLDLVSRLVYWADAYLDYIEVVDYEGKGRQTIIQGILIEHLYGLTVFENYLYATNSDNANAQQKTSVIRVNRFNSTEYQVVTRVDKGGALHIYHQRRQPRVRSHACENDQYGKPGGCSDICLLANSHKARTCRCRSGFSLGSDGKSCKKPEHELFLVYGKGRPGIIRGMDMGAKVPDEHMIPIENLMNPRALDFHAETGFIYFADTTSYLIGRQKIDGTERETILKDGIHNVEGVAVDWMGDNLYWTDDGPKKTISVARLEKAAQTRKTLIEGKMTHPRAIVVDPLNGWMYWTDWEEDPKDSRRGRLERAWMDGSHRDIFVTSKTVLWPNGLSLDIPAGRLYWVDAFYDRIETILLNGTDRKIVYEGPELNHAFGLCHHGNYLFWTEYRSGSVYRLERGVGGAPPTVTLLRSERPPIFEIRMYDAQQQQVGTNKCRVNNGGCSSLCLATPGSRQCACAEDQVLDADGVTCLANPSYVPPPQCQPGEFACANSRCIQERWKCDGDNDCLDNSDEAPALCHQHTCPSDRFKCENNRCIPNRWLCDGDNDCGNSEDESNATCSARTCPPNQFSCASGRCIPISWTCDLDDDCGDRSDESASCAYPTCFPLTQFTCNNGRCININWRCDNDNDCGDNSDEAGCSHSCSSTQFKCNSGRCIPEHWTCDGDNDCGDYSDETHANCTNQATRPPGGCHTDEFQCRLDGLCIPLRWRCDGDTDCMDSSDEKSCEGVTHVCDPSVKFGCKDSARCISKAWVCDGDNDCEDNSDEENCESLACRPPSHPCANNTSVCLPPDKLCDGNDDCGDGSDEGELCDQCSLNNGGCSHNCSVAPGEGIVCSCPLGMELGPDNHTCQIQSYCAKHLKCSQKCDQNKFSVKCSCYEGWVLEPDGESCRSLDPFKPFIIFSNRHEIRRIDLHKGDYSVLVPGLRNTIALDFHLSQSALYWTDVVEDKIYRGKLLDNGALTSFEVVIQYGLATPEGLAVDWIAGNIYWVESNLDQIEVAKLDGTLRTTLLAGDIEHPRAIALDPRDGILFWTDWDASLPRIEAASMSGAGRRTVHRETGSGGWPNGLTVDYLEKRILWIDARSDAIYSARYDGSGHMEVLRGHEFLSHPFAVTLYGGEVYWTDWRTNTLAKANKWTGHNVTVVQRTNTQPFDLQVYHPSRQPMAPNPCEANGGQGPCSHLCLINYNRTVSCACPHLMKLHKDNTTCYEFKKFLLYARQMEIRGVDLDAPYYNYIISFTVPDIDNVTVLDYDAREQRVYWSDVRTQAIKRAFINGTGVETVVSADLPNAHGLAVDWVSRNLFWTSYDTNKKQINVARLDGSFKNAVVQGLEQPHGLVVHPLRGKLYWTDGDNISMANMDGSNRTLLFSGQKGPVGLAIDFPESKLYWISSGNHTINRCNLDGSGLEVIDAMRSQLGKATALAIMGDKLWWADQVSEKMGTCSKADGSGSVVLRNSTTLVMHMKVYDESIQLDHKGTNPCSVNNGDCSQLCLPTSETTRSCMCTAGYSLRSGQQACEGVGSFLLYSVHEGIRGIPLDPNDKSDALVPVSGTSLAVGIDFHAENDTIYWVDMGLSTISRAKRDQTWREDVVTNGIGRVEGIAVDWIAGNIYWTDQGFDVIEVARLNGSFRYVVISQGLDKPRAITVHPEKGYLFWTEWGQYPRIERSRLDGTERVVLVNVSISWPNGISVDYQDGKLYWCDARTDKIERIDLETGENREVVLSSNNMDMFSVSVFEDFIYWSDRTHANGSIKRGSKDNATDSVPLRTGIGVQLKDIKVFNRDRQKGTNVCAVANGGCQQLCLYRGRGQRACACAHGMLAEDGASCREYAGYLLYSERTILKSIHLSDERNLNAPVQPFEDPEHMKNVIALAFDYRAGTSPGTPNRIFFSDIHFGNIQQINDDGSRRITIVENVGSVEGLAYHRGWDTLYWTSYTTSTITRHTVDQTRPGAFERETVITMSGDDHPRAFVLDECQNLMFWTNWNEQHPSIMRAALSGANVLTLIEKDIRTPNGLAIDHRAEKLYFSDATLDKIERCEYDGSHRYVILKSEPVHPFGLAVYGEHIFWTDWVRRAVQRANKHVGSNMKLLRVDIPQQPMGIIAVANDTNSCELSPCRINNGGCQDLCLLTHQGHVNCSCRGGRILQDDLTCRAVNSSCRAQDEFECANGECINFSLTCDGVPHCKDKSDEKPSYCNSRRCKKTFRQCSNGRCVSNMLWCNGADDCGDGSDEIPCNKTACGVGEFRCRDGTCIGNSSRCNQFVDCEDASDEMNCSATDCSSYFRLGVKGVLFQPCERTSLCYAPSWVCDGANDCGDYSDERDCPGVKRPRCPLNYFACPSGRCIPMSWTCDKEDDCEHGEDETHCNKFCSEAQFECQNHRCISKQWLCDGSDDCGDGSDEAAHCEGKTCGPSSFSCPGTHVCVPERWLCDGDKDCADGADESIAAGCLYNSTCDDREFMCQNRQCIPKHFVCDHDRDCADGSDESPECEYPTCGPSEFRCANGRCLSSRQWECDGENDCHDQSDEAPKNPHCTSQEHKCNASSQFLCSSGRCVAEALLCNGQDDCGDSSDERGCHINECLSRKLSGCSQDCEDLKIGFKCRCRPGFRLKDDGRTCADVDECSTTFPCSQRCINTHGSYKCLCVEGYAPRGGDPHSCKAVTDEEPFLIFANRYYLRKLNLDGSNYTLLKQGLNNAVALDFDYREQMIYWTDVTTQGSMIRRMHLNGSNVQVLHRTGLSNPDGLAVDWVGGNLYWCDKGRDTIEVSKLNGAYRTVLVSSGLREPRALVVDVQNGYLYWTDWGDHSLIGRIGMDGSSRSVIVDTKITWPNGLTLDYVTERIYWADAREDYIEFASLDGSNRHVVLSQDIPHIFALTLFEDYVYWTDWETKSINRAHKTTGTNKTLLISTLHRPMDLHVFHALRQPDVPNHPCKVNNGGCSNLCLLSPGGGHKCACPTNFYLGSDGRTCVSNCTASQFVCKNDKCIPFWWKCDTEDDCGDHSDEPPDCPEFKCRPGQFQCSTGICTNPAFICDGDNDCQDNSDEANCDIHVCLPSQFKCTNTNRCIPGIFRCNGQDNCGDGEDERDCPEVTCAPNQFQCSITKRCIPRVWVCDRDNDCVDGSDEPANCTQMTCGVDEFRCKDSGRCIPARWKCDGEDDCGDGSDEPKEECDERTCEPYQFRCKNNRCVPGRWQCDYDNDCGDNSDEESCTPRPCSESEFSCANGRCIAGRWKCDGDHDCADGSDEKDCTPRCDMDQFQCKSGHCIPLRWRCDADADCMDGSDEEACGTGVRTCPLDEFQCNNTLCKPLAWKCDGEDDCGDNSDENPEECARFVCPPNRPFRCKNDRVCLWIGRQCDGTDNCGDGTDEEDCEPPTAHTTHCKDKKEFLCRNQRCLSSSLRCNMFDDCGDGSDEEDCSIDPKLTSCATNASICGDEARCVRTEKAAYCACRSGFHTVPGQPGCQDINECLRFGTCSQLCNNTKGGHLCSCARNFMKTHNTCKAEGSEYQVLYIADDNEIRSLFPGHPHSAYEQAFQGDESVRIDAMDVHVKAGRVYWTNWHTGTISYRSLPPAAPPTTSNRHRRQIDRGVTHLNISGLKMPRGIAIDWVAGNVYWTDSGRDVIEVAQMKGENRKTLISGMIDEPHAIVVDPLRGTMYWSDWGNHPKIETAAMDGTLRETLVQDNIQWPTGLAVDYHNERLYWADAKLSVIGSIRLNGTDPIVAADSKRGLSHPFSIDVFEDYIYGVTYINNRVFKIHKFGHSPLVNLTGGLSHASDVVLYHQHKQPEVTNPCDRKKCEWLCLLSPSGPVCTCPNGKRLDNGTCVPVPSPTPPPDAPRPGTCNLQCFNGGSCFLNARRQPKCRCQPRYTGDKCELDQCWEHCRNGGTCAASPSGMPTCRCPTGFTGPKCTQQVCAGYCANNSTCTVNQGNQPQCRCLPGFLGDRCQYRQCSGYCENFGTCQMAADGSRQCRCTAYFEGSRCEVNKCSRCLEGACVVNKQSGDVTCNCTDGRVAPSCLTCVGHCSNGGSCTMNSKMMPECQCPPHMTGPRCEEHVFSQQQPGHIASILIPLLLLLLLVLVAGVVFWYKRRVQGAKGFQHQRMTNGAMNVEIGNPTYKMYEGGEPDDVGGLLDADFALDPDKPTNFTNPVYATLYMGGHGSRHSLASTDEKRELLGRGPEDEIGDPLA

pKd: 8.05
Substance: RAP (from UniProt P30533)
